Data reported in the supplement of paper PMC10567573.

B1: ZNF24 (parent)
chain: THTKEQILELVVLEQFVAILPKEL
B2: MFF (parent)
chain: YTEGISQRMRVPEKLKVAPPNADL

Variants of: B1
Test: protein stability index of a GFP-peptide fusion (GPS, HEK-293T) (PSI 1-6); higher = more stable
Details: c terminus: a fixed tail appended
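Also: lentivirally expressed fusions sorted by FACS into six bins by GFP to DsRed ratio, PSI derived from sequencing read proportions per bin multiplied by bin number.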

Protein stability index of substitutions, site by site:
K4: M 2.91 | H 2 | D 2.45 | A 2.93 | W 2.88 | C 3.41 | G 3.12 | P 2.23 | N 2.23 | S 2.19 | I 3.38 | F 4.57
L20: K 1.63 | G 1.94 | N 1.83 | P 2.78 | I 3.78 | F 2.83 | T 2.44 | S 2.33 | E 2.23 | D 2.6 | Q 3.05 | W 4.08 | A 3.07 | H 1.67
L13: D 2.29 | E 1.9 | Y 2.88 | P 2.42 | I 3.27 | K 1.69 | H 1.76 | G 1.84 | F 2.47
V17: K 1.54 | Q 2.02 | Y 2.53 | F 2.47 | W 2.19 | L 2.47 | N 1.72 | S 2.95 | T 1.97 | E 1.91
L10: S 1.72 | F 2.35 | I 2.02 | K 2.04 | A 2.28 | P 2.09 | Q 2.26 | C 2.42 | N 2.23 | E 2.12 | V 2.5 | D 2.69 | Y 2.69
T3: Q 2.81 | A 3.86 | H 2.23 | R 2.26 | M 3.02 | E 3.23 | P 2.96 | C 1.53 | G 4.09 | F 2.76 | K 2.96 | I 2.65 | D 2.43 | Y 3.59 | V 2
A18: V 2.58 | M 1.65 | D 2.32 | L 2.04 | K 2.49 | Q 2.48 | P 2.48 | S 1.95 | R 2.05 | F 1.44
E23: H 3.33 | I 2.56 | G 3.15 | T 1.75 | F 2.69 | K 1.64 | R 2.77 | L 1.68 | S 2.01 | A 2.59
P21: R 3.28 | G 2.21 | N 3.62 | S 1.42 | T 2.57 | W 3.12 | L 2.44 | F 1.92 | I 1.92 | C 3.76
V12: C 2.23 | Y 2.64 | P 2.19 | I 3.17 | W 2.42 | T 1.99 | H 1.8 | R 1.94 | F 2.93 | D 2.27 | A 1.83 | E 2.22
E9: W 2.87 | V 3.25 | M 2.04 | Y 3.52 | P 2.93 | A 3.22 | N 2.82 | T 2.29 | G 2.85 | H 3.25 | C 1.64 | D 2.28 | Q 2.69 | R 2.49 | L 2.62 | F 2.82
E14: N 3.68 | L 2.05 | H 2.94 | W 3.05 | K 2.61 | A 2.14 | T 2.64 | C 2.45 | P 2.12 | I 3.12 | Y 3.47 | F 2.48 | M 2.67 | S 2.53
L24: P 4.16 | Q 1.81 | D 1.67 | K 2.33 | G 2.16 | S 2.86 | F 3.54 | I 2.4 | N 1.06 | W 2.54 | M 2.8 | Y 3.41 | A 2.57
K22: P 2.18 | W 2.08 | Q 2.7 | M 3.15 | V 2.71 | C 2.67 | F 3.51 | H 2.12 | G 4.16 | R 2.78 | D 3.16 | T 2.89 | N 2.39
I7: E 2.55 | P 2.48 | K 1.56 | R 1.9 | A 1.74 | D 2.35 | M 3.04 | G 1.76 | S 2.04 | L 2.16
T1: N 2.86 | A 3.53 | E 2.81 | K 2.39 | S 3.3 | Y 2.79 | R 1.94 | Q 1.32 | G 2.25 | D 2.63 | V 3.19
L8: I 2.79 | F 3.62 | G 1.62 | D 2.52 | H 2.1 | W 3.68 | R 1.85 | P 2.16 | T 1.75 | N 1.57 | Q 1.95 | V 2.4
Q15: N 2.81 | M 2.63 | Y 2.18 | G 2.95 | W 2.82 | A 2 | T 3.75 | D 1.91 | I 2.87 | S 2.93
I19: F 2.22 | A 1.98 | C 2.61 | R 2.16 | Q 2.01 | G 1.52 | P 1.73 | D 1.77 | Y 2.18 | W 1.85 | N 1.7 | S 1.95 | T 1.8
V11: M 2.6 | L 2.43 | S 2.03 | K 1.47 | Y 1.91 | C 2.51 | W 3.42
Q6: E 2.46 | F 3.53 | T 3.03 | P 4 | M 3.56 | H 1.8 | N 2.52 | S 2.96 | G 3.09
E5: A 2 | I 3.67 | T 3.59 | V 3.53 | K 2.23 | Q 2.97 | S 1.57
H2: T 2.23 | C 2.25 | P 1.76 | N 2.59 | K 3.34 | F 2.4 | Y 2.19 | Q 3.14 | M 3.24 | D 4.11 | W 3.14
F16: Y 1.76 | R 1.99 | E 2.03 | A 1.91 | L 3.14 | V 2.02 | P 1.94 | C 1.77 | T 1.82 | S 2.27 | D 2.33

Variants of: B2
Test: as above
Details: c terminus: a fixed tail appended

Protein stability index of substitutions, site by site:
Y1: A 4.62 | C 4.21 | D 4.48 | E 4.55 | F 2.52 | G 4.57 | H 4.52 | I 3.87 | K 4.27 | L 4.21 | M 4.59 | N 4.67 | P 4.64 | Q 4.41 | R 4.22 | S 4.48 | T 4.31 | V 4.25 | W 4.21
T2: A 2.72 | C 2.65 | D 4.18 | E 4.85 | F 3.2 | G 3.85 | H 2.69 | I 1.65 | K 3.92 | L 2.13 | M 3.46 | N 3.69 | P 3.48 | Q 3.03 | R 3.88 | S 3.81 | V 2.46 | W 3.17 | Y 3.2
E3: A 2.96 | C 2.28 | D 3.24 | F 1.9 | G 2.3 | H 2.92 | I 2.42 | K 2.41 | L 2.58 | M 2.48 | N 3.3 | P 2.29 | Q 3.01 | R 3.03 | S 2.54 | T 2.56 | V 2.44 | W 1.53 | Y 2.69
G4: A 3.9 | C 3.47 | D 4.46 | E 3.61 | F 2.32
